US20220290188

Key:
Test in all cases: cell_activity
[1] = test system: TL11128 TALE-KRAB (synthetic); details: PD-1, day 2
[2] = test system: TL8201 TALE-KRAB (synthetic); details: TIM3, day 2
[3] = test system: TL8222 TALE-KRAB (synthetic); details: LAG3, day 2
[4] = test system: TL11093 TALE-KRAB (synthetic); details: PD-1, day 2
[5] = test system: TL11131 TALE-KRAB (synthetic); details: PD-1, day 2
[6] = test system: TL11112 TALE-KRAB (synthetic); details: PD-1, day 2
[7] = test system: TL11102 TALE-KRAB (synthetic); details: PD-1, day 2
[8] = test system: TL11106 TALE-KRAB (synthetic); details: PD-1, day 2
[9] = test system: TL9337 TALE-KRAB (synthetic); details: TIM3, day 2
[10] = test system: TL8189 TALE-KRAB (synthetic); details: TIM3, day 2
[11] = test system: TL11101 TALE-KRAB (synthetic); details: PD-1, day 2
[12] = test system: TL8188 TALE-KRAB (synthetic); details: TIM3, day 2
[13] = test system: TL11877 TALE-KRAB (synthetic); details: PD-1, day 2; table prints SEQ 63 but bases match SEQ 18
[14] = test system: TL11879 TALE-KRAB (synthetic); details: PD-1, day 2
[15] = test system: TL9342 TALE-KRAB (synthetic); details: TIM3, day 2
[16] = test system: TL11088 TALE-KRAB (synthetic); details: PD-1, day 2
[17] = test system: TL11110 TALE-KRAB (synthetic); details: PD-1, day 2
[18] = test system: TL11126 TALE-KRAB (synthetic); details: PD-1, day 2
[19] = test system: TL9717 TALE-KRAB (synthetic); details: LAG3, day 2
[20] = test system: TL11876 TALE-KRAB (synthetic); details: PD-1, day 2
[21] = test system: TL9606 TALE-KRAB (synthetic); details: LAG3, day 2
[22] = test system: TL11099 TALE-KRAB (synthetic); details: PD-1, day 2
[23] = test system: TL11124 TALE-KRAB (synthetic); details: PD-1, day 2
[24] = test system: TL11092 TALE-KRAB (synthetic); details: PD-1, day 2
[25] = test system: TL11119 TALE-KRAB (synthetic); details: PD-1, day 2
[26] = test system: TL11105 TALE-KRAB (synthetic); details: PD-1, day 2
[27] = test system: TL11108 TALE-KRAB (synthetic); details: PD-1, day 2
[28] = test system: TL11103 TALE-KRAB (synthetic); details: PD-1, day 2
[29] = test system: TL11130 TALE-KRAB (synthetic); details: PD-1, day 2
[30] = test system: pAL040 TALE-KRAB (synthetic); details: PD-1, day 2
[31] = test system: TL11104 TALE-KRAB (synthetic); details: PD-1, day 2
[32] = test system: TL8216 TALE-KRAB (synthetic); details: LAG3, day 2
[33] = test system: pAL043 (PD02) TALE-KRAB (synthetic); details: PD-1, day 2
[34] = test system: TL9598 TALE-KRAB (synthetic); details: LAG3, day 2
[35] = test system: TL9820 TALE-KRAB (synthetic); details: LAG3, day 2
[36] = test system: TL11129 TALE-KRAB (synthetic); details: PD-1, day 2
[37] = test system: TL8214 TALE-KRAB (synthetic); details: LAG3, day 2
[38] = test system: TL11127 TALE-KRAB (synthetic); details: PD-1, day 2
[39] = test system: TL11084 TALE-KRAB (synthetic); details: PD-1, day 2
[40] = test system: TL11087 TALE-KRAB (synthetic); details: PD-1, day 2
[41] = test system: TL11133 TALE-KRAB (synthetic); details: PD-1, day 2
[42] = test system: TL8241 TALE-KRAB (synthetic); details: LAG3, day 2
[43] = test system: TL11132 TALE-KRAB (synthetic); details: PD-1, day 2
[44] = test system: TL11096 TALE-KRAB (synthetic); details: PD-1, day 2
[45] = test system: TL9339 TALE-KRAB (synthetic); details: TIM3, day 2
[46] = test system: TL8220 TALE-KRAB (synthetic); details: LAG3, day 2
[47] = test system: TL11094 TALE-KRAB (synthetic); details: PD-1, CD3+ T cells, day 2
[48] = test system: TL8181 TALE-KRAB (synthetic); details: TIM3, day 2
[49] = test system: TL11875 TALE-KRAB (synthetic); details: PD-1, day 2

For “GCCTCTGTCACTCTCGCCC (double strand) [TL11128 site]”, the activity [1] was over 80 % repression.
For “GAGAAAATTGTATTAGAT (double strand) [TL8201 site]”, the activity [2] was over 50 % repression.
“GCCGTTCTGCTGGTCT (double strand) [TL8222 site]” gave an activity [3] of over 80 % repression.
Work on “GGGGCTGCTCCAGGCATGC (double strand) [TL11093 site]” yielded an activity [4] of over 50 % repression.
Sequence “CCCCCAGCACTGCCTCT (double strand) [TL11131 site]” has an activity [5] of over 50 % repression.
“CCCTTCAACCTGACCT (double strand) [TL11112 site]” gave an activity [6] of over 80 % repression.
With “CCACTGCTCAGGCGGAGGT (double strand) [TL11102 site]” the activity [7] was over 50 % repression.
With “TTCCCTTCCGCTCACC (double strand) [TL11106 site]” the activity [8] was over 80 % repression.
“TGGCAATCAGACACCCGGGTG (double strand) [TL9337 site]” was tested, and the activity [9] was over 80 % repression.
With “TGCCAGTGATTCTTATAGT (double strand) [TL8189 site]” the activity [10] was over 80 % repression.
With “TCTCCACTGCTCAGGCG (double strand) [TL11101 site]” the activity [11] was over 80 % repression.
Work on “GGCAGTGTTACTATAA (double strand) [TL8188 site]” yielded an activity [12] of over 80 % repression.
For “CCCAGGTCAGGTTGAAG (double strand) [TL11877 site]”, the activity [13] was over 80 % repression.
Work on “CTTCCTCCACATCCACG (double strand) [TL11879 site]” yielded an activity [14] of over 50 % repression.
Sequence “TGCCACACTACACACAT (double strand) [TL9342 site]” has an activity [15] of over 80 % repression.
“CCCACAGGCGCCCTGG (double strand) [TL11088 site]” was tested, and the activity [16] was over 50 % repression.
“CAACCTGACCTGGGACAGTT (double strand) [TL11110 site]” was tested, and the activity [17] was over 80 % repression.
“CACTCTCGCCCACGTGGAT (double strand) [TL11126 site]” gave an activity [18] of over 50 % repression.
“TTTGCTCTGTCTGCTC (double strand) [TL9717 site]” was tested, and the activity [19] was over 80 % repression.
“GACCTGGGACAGTTTCC (double strand) [TL11876 site]” was tested, and the activity [20] was over 80 % repression.
“TGGTCTCTGGGCCTTCACCC (double strand) [TL9606 site]” gave an activity [21] of over 80 % repression.
“GCCGCCTTCTCCACT (double strand) [TL11099 site]” gave an activity [22] of over 80 % repression.
“CTCGCCCACGTGGATGTGG (double strand) [TL11124 site]” showed an activity [23] of over 50 % repression.
For “CTGCATGCCTGGAGCAG (double strand) [TL11092 site]”, the activity [24] was over 50 % repression.
In the case of “GCTCCCGCCCCCTCTTCCT (double strand) [TL11119 site]”, the activity [25] is reported as over 50 % repression.
Work on “CCCTTCCGCTCACCTCCGC (double strand) [TL11105 site]” yielded an activity [26] of over 80 % repression.
In the case of “GGGACAGTTTCCCTTC (double strand) [TL11108 site]”, the activity [27] is reported as over 80 % repression.
Work on “GCTCAGGCGGAGGTGAG (double strand) [TL11103 site]” yielded an activity [28] of over 50 % repression.
“GACAGAGGCAGTGCTGG (double strand) [TL11130 site]” gave an activity [29] of over 50 % repression.
“TCTGTCACTCTCGCCCAC (double strand) [pAL040 site]” showed an activity [30] of over 80 % repression.
In the case of “TCCGCTCACCTCCGCCTGA (double strand) [TL11104 site]”, the activity [31] is reported as over 80 % repression.
“TCTGCTGGTCTCTGGGCC (double strand) [TL8216 site]” was tested, and the activity [32] was over 80 % repression.
“TGGTGGGGCTGCTCC (double strand) [pAL043 site]” gave an activity [33] of over 80 % repression.
“TCTGCTGGTCTCTGGGCCTTC (double strand) [TL9598 site]” gave an activity [34] of over 80 % repression.
“TTCACCCCTGTGCCCGGCCTTCC (double strand) [TL9820 site]” gave an activity [35] of over 80 % repression.
Work on “GCCTCTGTCACTCTCG (double strand) [TL11129 site]” yielded an activity [36] of over 80 % repression.
“GGTCTCTGGGCCTTCA (double strand) [TL8214 site]” showed an activity [37] of over 80 % repression.
Sequence “CTGTCACTCTCGCCCACGT (double strand) [TL11127 site]” has an activity [38] of over 50 % repression.
“GGCCAGGGCGCCTGT (double strand) [TL11084 site]” showed an activity [39] of over 50 % repression.
“CCTCCACATCCACGTGGGC (double strand) [TL11087 site]” gave an activity [40] of over 50 % repression.
With “CCTCCCCCAGCACTGCC (double strand) [TL11133 site]” the activity [41] was over 80 % repression.
In the case of “CTGTTCCCTGGGACACCCCC (double strand) [TL8241 site]”, the activity [42] is reported as over 50 % repression.
With “CCTCCCCCAGCACTGC (double strand) [TL11132 site]” the activity [43] was over 80 % repression.
“GGAGCAGCCCCACCAGAGT (double strand) [TL11096 site]” showed an activity [44] of over 50 % repression.
“TGTCTGATTGCCAGTGATT (double strand) [TL9339 site]” showed an activity [45] of over 80 % repression.
In the case of “GCCGTTCTGCTGGTCTCT (double strand) [TL8220 site]”, the activity [46] is reported as over 80 % repression.
“GGTGGGGCTGCTCCAGG (double strand) [TL11094 site]” gave an activity [47] of over 80 % repression.
“ACTTCTTCCAACTGT (double strand) [TL8181 site]” showed an activity [48] of over 50 % repression.
“GCAGATCCCACAGGCGC (double strand) [TL11875 site]” showed an activity [49] of over 80 % repression.
